According to patent US20100256148A1, “USE OF CFMS INHIBITOR FOR TREATING OR PREVENTING BONE CANCER AND THE BONE LOSS AND BONE PAIN ASSOCIATED WITH BONE CANCER” (priority 2007, published 2010):

Target: T1, CSF-1R (Mus musculus, UniProt P09581)
T1 construct: from tissue; host or cells: mouse spleen, in vivo
T1 sequence (P09581 20-977): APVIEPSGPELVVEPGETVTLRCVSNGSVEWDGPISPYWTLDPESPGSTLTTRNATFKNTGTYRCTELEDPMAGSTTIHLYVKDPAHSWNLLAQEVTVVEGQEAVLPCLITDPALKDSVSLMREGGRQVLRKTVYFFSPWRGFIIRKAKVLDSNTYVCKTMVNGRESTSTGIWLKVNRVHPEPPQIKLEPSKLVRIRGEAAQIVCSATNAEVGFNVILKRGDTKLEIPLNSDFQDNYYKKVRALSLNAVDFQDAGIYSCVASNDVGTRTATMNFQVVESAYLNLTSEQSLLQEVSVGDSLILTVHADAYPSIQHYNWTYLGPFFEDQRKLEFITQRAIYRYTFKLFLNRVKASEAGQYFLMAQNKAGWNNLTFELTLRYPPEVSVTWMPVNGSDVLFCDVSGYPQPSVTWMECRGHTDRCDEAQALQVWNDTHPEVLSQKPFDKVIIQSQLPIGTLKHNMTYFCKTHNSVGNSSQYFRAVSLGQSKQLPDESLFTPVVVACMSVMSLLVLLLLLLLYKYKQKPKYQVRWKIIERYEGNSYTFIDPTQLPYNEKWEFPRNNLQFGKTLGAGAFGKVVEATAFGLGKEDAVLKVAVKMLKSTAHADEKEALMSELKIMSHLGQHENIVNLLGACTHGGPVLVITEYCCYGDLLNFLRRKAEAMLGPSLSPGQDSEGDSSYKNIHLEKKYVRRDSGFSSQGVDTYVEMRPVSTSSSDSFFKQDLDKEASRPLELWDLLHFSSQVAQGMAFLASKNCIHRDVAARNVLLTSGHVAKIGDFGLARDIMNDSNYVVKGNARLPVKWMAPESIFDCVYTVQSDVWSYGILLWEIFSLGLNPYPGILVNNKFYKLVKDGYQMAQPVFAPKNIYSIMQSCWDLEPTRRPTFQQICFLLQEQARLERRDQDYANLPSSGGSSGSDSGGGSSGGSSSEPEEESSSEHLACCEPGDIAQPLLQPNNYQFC
Assay: In vivo pharmacodynamic model: CSF-1-induced splenic c-fos mRNA
Protocol: Eight hours later, mice were administered saline or 0.8 μg recombinant mouse CSF-1 (Cell Biosciences Inc, Norwood, Mass.) via the tail vein. Fifteen minutes after the tail vein injection, mice were sacrificed and spleens were isolated and snap frozen on dry ice. The frozen tissue was homogenized in 1 ml of Trizol (Invitrogen) per 50 mg of tissue, and RNA was purified according to the Trizol instructions and treated with 6.8 Kunitz units of RNase-free DNase (Qiagen, Valencia, Calif.) to degrade contaminating genomic DNA. The RNA was purified further using RNeasy columns (Qiagen). RT-PCR was performed in 25 μL reaction volumes using Reverse Transciptase qPCR Master Mix (Eurogentec) and approximately 50 ng RNA. Applied Biosystems, Inc., (Foster City, Calif.) was the source for the primer probe set for mouse c-fos mRNA (part# Mm00487425) and 18S rRNA (part# 4333760F). Amplification and detection were performed using the ABI Prism 7000 Sequence Detector system. Standard curves were created for c-fos mRNA and for 18s rRNA using RNA isolated from a vehicle-treated, CSF-1-induced mouse and used to calculate relative expression levels in all other samples. c-fos mRNA values were normalized to 18S rRNA content. Averaged, normalized c-fos content in the saline (no CSF-1) group was assigned a value of one and all other groups were expressed as “fold-induced”.

- ED50 of splenic c-fos mRNA induction (intravenous recombinant CSF-1): ca. 0.8 μg/mouse
- induction of splenic c-fos mRNA (intravenous recombinant CSF-1, within fifteen minutes): 10- to 50 fold
B1: CSF-1: recombinant mouse CSF-1 (Cell Biosciences Inc), given via the tail vein as challenge (protein, UniProt P07141 33-552, looked up)
Macrophage colony-stimulating …: KEVSEHCSHMIGNGHLKVLQQLIDSQMETSCQIAFEFVDQEQLDDPVCYLKKAFFLVQDIIDETMRFKDNTPNANATERLQELSNNLNSCFTKDYEEQNKACVRTFHETPLQLLEKIKNFFNETKNLLEKDWNIFTKNCNNSFAKCSSRDVVTKPDCNCLYPKATPSSDPASASPHQPPAPSMAPLAGLAWDDSQRTEGSSLLPSELPLRIEDPGSAKQRPPRSTCQTLESTEQPNHGDRLTEDSQPHPSAGGPVPGVEDILESSLGTNWVLEEASGEASEGFLTQEAKFSPSTPVGGSIQAETDRPRALSASPFPKSTEDQKPVDITDRPLTEVNPMRPIGQTQNNTPEKTDGTSTLREDHQEPGSPHIATPNPQRVSNSATPVAQLLLPKSHSWGIVLPLGELEGKRSTRDRRSPAELEGGSASEGAARPVARFNSIPLTDTGHVEQHEGSSDPQIPESVFHLLVPGIILVLLTVGGLLFYKWKWRSHRDPQTLDSSVGRPEDSSLTQDEDRQVELPV
